Results taken from patent publication US12018327B2, “Methods and compositions relating to epoxide hydrolase genes” (The Regents of the University of California, priority 2018, dated 2024).

T1: PPARγ (Homo sapiens, UniProt P37231)
T1 sequence (P37231 1-505): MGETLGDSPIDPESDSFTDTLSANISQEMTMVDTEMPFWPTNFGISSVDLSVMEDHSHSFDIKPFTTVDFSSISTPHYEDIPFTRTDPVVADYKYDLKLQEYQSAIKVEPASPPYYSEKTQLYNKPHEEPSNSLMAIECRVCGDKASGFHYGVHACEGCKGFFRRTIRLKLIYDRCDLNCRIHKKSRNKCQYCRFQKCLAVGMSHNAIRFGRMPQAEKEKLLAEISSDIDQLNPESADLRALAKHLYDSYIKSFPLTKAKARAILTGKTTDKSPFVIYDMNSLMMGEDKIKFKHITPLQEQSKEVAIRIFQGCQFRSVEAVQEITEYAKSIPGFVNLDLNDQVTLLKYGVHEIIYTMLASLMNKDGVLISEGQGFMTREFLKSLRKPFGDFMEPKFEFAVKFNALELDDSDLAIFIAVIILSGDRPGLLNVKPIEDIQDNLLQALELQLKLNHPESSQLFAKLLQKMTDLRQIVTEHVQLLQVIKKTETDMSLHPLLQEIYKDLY


Key:
[1] = target: T1, PPARγ; conditions: ref [19]; cited from earlier work
[2] = Colorimetric detection of EH activity, 12,13 EpOME; format: biochemical; conditions: gene expressed in E. coli BL21

Row | Molecule | action on PPARγ [1] | conversion of 12,13 EpOME into 12,13 DiHOME [2]
1 | CCCCC/C=C\CC(O)C(O)CCCCCCCC(=O)O (stereo not shown) [9,10 DiHOME] | known agonist | –
2 | YP_003971091: Bifidobacterium bifidum PRL2010 hydrolase (epoxide hydrolase) encoded by Gene 2, expressed in E. coli (protein) MSQHQVTTRQRRNVVLLDLDGTLTQSDPGIIACATKAFEELSLPVPDDQEMHRFIGPAIIESFRRNHMPDELLDRGVEIYREYYADKAVFDDPNNPGHKIPGRLYNSVYAGIPEQLAALRADGLHLAIATCKPQYQAEPVCEHFHLDTMVDGIYGASTDNSRIDKDQVIRYCFDSIGFDADAGDRALMVGDRWTDVDGAIACGLDCLGCRWGYAEAGELEEHGAYRIIDTVDELAAAVNDYFAK | – | could convert
3 | YP_003971333: Bifidobacterium bifidum PRL2010 hydrolase (epoxide hydrolase) encoded by Gene 3, expressed in E. coli (protein) MASDDIMTAGAGGATATVRADIKAAFFDIDGTLTSFVTHVIPQSSIDALHELQDRGVKVFICSGRAPSHMTVVLDMMPVHFDGIIALNGQYCFDDHGLLEKESLLPEDIVTITRWLDEHPDVVANYCEKDYVYFNQITDAMRATWRQLGKTAPTVNIDDPHERALKHETFQISPYISFEDEAKLSGMCRNVRGVRWHPDFTDLIPADGGKPEGMKRFMRHYGWTREQTIAFGDGGNDADMLAFAGIGVAMGNATEPAKAAADYITDDVDHDGIMNALKHFNVL | – | could convert
4 | NP_814872: Enterococcus faecalis epoxide hydrolase (HAD superfamily hydrolase) encoded by Gene 1, expressed in E. coli (protein) MSIKLVAIDIDGTLLNSQHKITPRVKEALQKANEQGVRIVLCTGRPLPGVKEQLDELALYGENDFVITYNGSLVQATKDNTIISRYTLSYEDFLEIEMYSRKVGAHLHTIDDSAIYTANRNIGKYTIHEASLVNMPLKYRTVDEMTPEMNIIKMMMIDEPEVLDPAIAKLPLHFTEKYTTVKSTPFYYEIMNKNASKGNALAKLADHLGLNKDEVMAIGDNENDLSMIDYAGIGVAMGNATENVKTIADVHTTSNDEDGVAQIIEKMVLI | – | could convert
